Measurements taken from patent US20150258217A1, “Methods of Synthesizing and Using Peg-Like Fluorochromes” (THE GENERAL HOSPITAL CORPORATION, priority 2012, published 2015).

Key:
[1] = PN and peptide size (volume, diameter) by FPLC gel filtration (Superdex 200, globular protein standards); type: physicochemical; conditions: for Molecular Volume: Table 3C, proposed Example 4 compounds; for Molecular Volume FPLC: Table 3B, dipeptides; for Volume FPLC (diameter) / Volume FPLC: Table 5; for Volume FPLC (diameter): converted from globular protein equivalent MW; for Volume FPLC: globular protein equivalent molecular weight; for diameter: FPLC gel filtration
Experimental: DOTA-Lys-Cys(IR783)-NH2 is then dissolved in DMSO, with 2 equivalents of an NHS ester of PEG and 6 equivalents of DIPEA. The reaction was at room temperature for 5 days. Product was purified by reverse phase HPLC separation. Product molecular weight was by matrix-assisted laser desorption ionization time-of-flight mass spectrometry (MALDI-TOF MS), with product molecular volume by size exclusion FPLC using globular protein standards (GE Healthcare life science AKTApurifier 10).
The mass spec of low molecular weights (MW) were obtained by MS-ESI Micromass (Waters) and high MW molecules were determined through MALDI-TOF analyses at the Tufts University Core Facility. RP-HPLC (Varian ProStar detector and delivery modules) employed an eluant A (0.1% TFA/water) and eluant B (0.1% TFA and 9.9% water in acetonitrile). Probe size (volume) was determined by FPLC using an ÄKTA Purifier 10 and Superdex™ 200 10/300GL column (GE Healthcare) with a running buffer of 0.05 M sodium phosphate, 0.15 M NaCl (0.1% Tween, pH 7.2) and flow rate of 0.8 ml/min. Standards (GE Healthcare) were Ferritin, Ribonuclease A, Carbonic Anhydrase, and Conalbumin and Blue Dextran 2000. To obtain probe volumes, Mr (apparent molecular weight based on size exclusion retention) was plotted versus Kav. Kav=(Ve−Vo)/(Vt−Vo), Vt=total volume, Ve=elution volume, Vo=void volume.
The column was calibrated with globular protein standards, and globular protein equivalent molecular weights (in kDa) were obtained (Table 5, column 5). These were converted to PN diameters in nm using the relationship: Radius in nm=[…] where M is the molecular weight of a globular protein expressed in daltons (see Erickson, “Size and Shape of Protein Molecules at the Nanometer Level Determined by Sedimentation, Gel Filtration, and Electron Microscopy”, Biological Procedures Online 2009, 11(1): 32-50). PN's diameters ranged from 3.0 to 11.8 nm (see FIG. 23a). Using PEG's of 5 kDa and 30 kDa, selected for their low polydispersity, PN's were synthesized using IR-783, Cy3 and Fluorescein (see FIG. 22a) and their sizes determined (see FIGS. 23a, 23b, 23c). With the 5 kDa PEG and these three fluorochromes (see the magenta chromatograms in FIGS. 22a, 23b and 23c) PN diameters were 4.3 nm. With the 30 kDa PEG and these three fluorochromes (blue chromatograms, 23a, 23b, 23c), PN diameters were now 10.0 nm. For reference, the diameter of a 67 kDa albumin determined by this method was 5.4 nm.

[2] = Quantum yield determination; type: physicochemical; conditions: for Quant. Yield: Table 5, in PBS
Experimental: Quantum yields were determined as described in Demas et al., “Measurement of photoluminescence quantum yields. Review”, Journal of Physical Chemistry 75, 991-1024 (1971), and Shao et al., “Facile Synthesis of Monofunctional Pentamethine Carbocyanine Fluorophores. Dyes and pigments: an international journal 90, 119-122 (2011). For IR-783 a reference quantum yield of 0.043 was used (see Li et al., “Synthesis and characterization of glucosamine-bound near-infrared probes for optical imaging”, Organic letters 8, 3623-3626, 2006); for fluorescein a reference quantum yield was […] (see Sjoback et al., “Absorption and florescence properties of fluorescein”, Spectrohimica Acta Part A 51, L7-L21, 1995). For Cy3 a reference quantum yield of 0.31 was used (Luminprobe Inc). For PN(783)'s, excitation was at 730 nm and emission spectra were recorded from 765 nm to 870 nm in PBS and maximum emission used. For PN(545)'s, excitation was at 515 nm and emission spectra were recorded from 538 nm to 700 nm in PBS and maximum emission used. For PN(497)'s, excitation was at 450 nm and emission spectra were recorded from 475 nm to 620 nm in PBS and maximum emission used. Absorbance of each probe was adjusted less than 0.1. Measurements were made in triplicate and are expressed as mean±SD.

[3] = Probe volume determination by FPLC (Superdex 75, globular protein standards); type: physicochemical
Experimental: Size (volume) was determined by FPLC using an ÄKTA Purifier 10 and Superdex™ 75 10/300 GL column (GE Healthcare Lifesciences) with a running buffer of 0.05 M sodium phosphate, 0.15 M NaCl (0.1% Tween, pH 7.2) and flow rate of 0.5 ml/min. The protein standards (Gel Filtration Calibration Kit LMW, code no. 28-4038-41, GE Healthcare) (0.3 mg/ml, mixture of Aprotinin, Ribonuclease A, Ovalbumin, and Conalbumin) and Blue Dextran 2000 were used. To obtain volumes, Mr (apparent molecular weight based on size exclusion retention) was plotted versus Kav. Kav=(Ve−Vo)/[…], Vt=total volume, Ve=elution volume, Vo=void volume.

[4] = tested on: HT-29, a human colon carcinoma cell line; experiment: PN and peptide binding to cells (non-specific binding, FACS); type: cell-based; conditions: HT-29 cells; for Cell NSB (percent of cells with fluorescence higher than unstained cell): 30 min at 37° C., FACS
Experimental: HT-29, a human colon carcinoma cell line, was from the American Tissue Culture Collection and maintained according to their instructions. Cells were seeded on 24-well plates at 5×10^5 cells/well in culture medium (RPMI 1640 with 10% FBS) the day before the assay. The day of assay, medium was removed, wells rinsed twice with DPBS (+Ca, +Mg), and 100 μl of 2% FBS/DPBS (+Ca, +Mg) added. 100 μL of Nanoprobes (2 μM) in DPBS (+Ca, +Mg) was added to cells and incubated for 30 min at 37° C. (Probe concentrations were determined spectrophotometrically (783 nm, extinction coefficient of 314 471 cm^−1 M^−1 for IR-783; 497 nm, extinction coefficient of 68 000 cm^−1 M^−1 for Fluorescein; 545 nm, extinction coefficient of 150 000 cm^−1 M^−1 for Cy3). Cells were detached by Trypsin/EDTA and assayed for fluorescence by FACS (BD 7 laser LSR2 for nanoprobes with IR-783; BD 3 laser LSR2 for nanoprobes with Fluorescein or Cy3).

[5] = tested on: GFP expressing BT-20 breast carcinoma xenograft; experiment: Tumor surface fluorescence after peritumoral (DMR) or IV injection; type: in vivo, mouse
Experimental: Day 1, BT-20 cells were planted into 24-well plate at 750,000 cells/well in culture medium (EMEM with 10% FBS). Day 2, the old culture medium was replaced with new culture medium containing lenti-virus (1×10^8 particles/mL) and protamine sulphate (American Pharmaceutical Partners, Los Angelus, Calif.; 10 mg/mL; 1:500 of total volume of medium). Day 3, after 16 hours of transfection, medium was changed to the culture medium (EMEM with 10% FBS). 8 hours later, green cells could be seen via fluorescence microscope.
All animal experiments were approved by the Institutional Review Committee of Massachusetts General Hospital. Female nude mice (25-30 g; 6-8 weeks old; nu/nu; Cox 7, Massachusetts General Hospital, Boston, Mass.) were anesthetized with isoflurane/O2. Tumor cell implantation was performed both sides around the shoulder. 200 μl of cell suspension containing 10^6 cells in Matrigel (BD) was injected subcutaneously. Tumor cells were inoculated for 7 to 10 days.
The diffusion and molecular retention required of the DMR technique with a tumor bearing model were investigated. We peritumorally injected the RGD probe into an animal bearing two GFP expressing BT-20 breast carcinomas and monitored tumor GFP fluorescence and probe fluorescence as a function of time after injection. The non-integrin binding RAD probe was injected into a second animal also bearing two tumors. Overlaying purple probe fluorescence over green GFP yields white. […] Tumor surface fluorescence from both probes was quantified by the use of solution standards.
In FIG. 8a), two animals bearing two tumors were PT injected with the RGD probe or RAD probe as indicated and surface fluorescence images were obtained. […] In FIG. 8b), quantitation of tumor surface fluorescence after injections of the RGD or RAD probes as above. Surface fluorescence was quantified through the use of standard solutions.
To compare the DMR and intravenous (IV) methods, surface fluorescence images of tumor GFP and RGD probe fluorescence were obtained with skin removed, and overlays from the two signals obtained. With both DMR and IV administration, probe fluorescence extended beyond tumor GFP margins to a stromal area beyond the tumor. However, tumor fluorescence was far higher with DMR than IV injection, even though dose was far lower (50 pmoles/mouse by DMR versus 2000 pmoles/mouse by IV).
In FIG. 9a), skin covering GFP-BT-20 tumor was removed. Shown are visible GFP fluorescence, probe (CyAL5.5) fluorescence, and the overlay of GFP and probe fluorescence plus an X-ray image. Green GFP plus purple CyAL5.5 fluorescence yielded a white overlaid image. In FIG. 9b), with DMR or IV, probe fluorescence included a stromal zone of integrin binding surrounding the tumor was seen. […]

[6] = Table 3A, CyAL5.5 tetrapeptides
[7] = Table 3C, proposed Example 4 compounds

5 kDa PEG-Cys(IR-783)-OH
Molecular Volume [1]: >20 kDa

DOTA-Lys(CyAL5.5)-Lys(NH2)-β-Ala-Lys(N3-DBCO-PEG4-cRGD)-NH2 [Compound 6a]
Quantum Yield [2, 6]: 0.082 | Molecular Volume ([3]; Table 3A, tetrapeptides): <1 kDa

(DOTA)Lys-Cys(Fluorescein) [(DOTA)Lys-Cys(FI)]
Quant. Yield [2]: 0.50 | binding to cells (FACS, FIG. 30) [4]: binds cells very weakly | Cell NSB (percent of cells with fluorescence higher than unstained cell) [4]: 0.4%

(DOTA)Lys(PEG40K)-Cys(IR-783) [PN(783)11.7]
Quantum Yield ([2]; Table 3B, IR-783 dipeptides): 0.18 | Quant. Yield [2]: 0.16 | Molecular Volume FPLC [1]: 690 kDa | Volume FPLC (diameter) [1]: 11.7 nm | Volume FPLC [1]: 690 kDa

DOTA-Lys(CyAL5.5)-Lys(NH2)-β-Ala-Lys(N3) [Compound 5a]
Quantum Yield [2, 6]: 0.061 | Molecular Volume ([3]; Table 3A, tetrapeptides): <1 kDa

DOTA-Lys(CyAL5.5)-Lys(5 kDa PEG)- βAla -Lys(sPEG-RGD) [Compound 7a]
Quantum Yield ([2]; Table 4, DMR probes): 0.20 | tumor retention of probe fluorescence after peritumoral injection ([5]; BT-20 tumors, 24 hours post injection): retained by the tumor | Tumor fluorescence ([5]; DMR, 50 pmoles/mouse): 15.0 au | Tumor fluorescence ([5]; IV, 2000 pmoles/mouse): 1.5 au | Equiv. Vol. ([3]; FPLC, globular protein equivalent volume): 25 kDa | Molecular Volume ([3]; Table 4, DMR probes): 20-30 kDa

CC1(C)C(/C=C/C=C/C=C/C=C2/N(CCCCS(=O)(=O)O)c3ccc4ccccc4c3C2(C)C)=[N+](CCCCS(=O)(=O)O)c2ccc3ccccc3c21 [ICG, Indocyanine green, reference compound]
Quantum Yield ([2]; Table 3B, IR-783 dipeptides): 0.041

(DOTA)Lys-Cys(Cy3)
Quant. Yield [2]: 0.32 | Volume FPLC [1]: 0.6 kDa | binding to cells (FACS, FIG. 30) [4]: binds to cells | Cell NSB (percent of cells with fluorescence higher than unstained cell) [4]: 98%

(DOTA)Lys(PEG5K)-Cys(FI) [PN(497)4.3]
Quant. Yield [2]: 0.59 | diameter [1]: 4.3 nm | Volume FPLC [1]: 35 kDa | Cell NSB (percent of cells with fluorescence higher than unstained cell) [4]: 0.2%

DOTA-Lys(CyAL5.5)-Lys(5 kDa PEG)- βAla -Lys(N3)-NH2 [Compound 5b]
Quantum Yield [2, 6]: 0.17 | Molecular Volume ([3]; Table 3A, tetrapeptides): <1 kDa

(DOTA)Lys-Cys(IR-783)
Quantum Yield ([2]; Table 3B, IR-783 dipeptides): 0.053 | Quant. Yield [2]: 0.053 | diameter [1]: 1.1 nm | Molecular Volume FPLC [1]: 0.600 kDa | Volume FPLC (diameter) [1]: 1.10 nm | Volume FPLC [1]: 0.600 kDa | binding to cells (FACS, FIG. 30) [4]: binds cells | Cell NSB (percent of cells with fluorescence higher than unstained cell) [4]: 95%

DOTA-Lys(CyAL5.5)-Lys- βala -Lys(sPEG-RAD) [Compound 6b]
Quantum Yield [2, 6]: 0.081 | Molecular Volume ([3]; Table 3A, tetrapeptides): <1 kDa

(DOTA)Lys(PEG30K)-Cys(FI) [PN(497)10.0]
Quant. Yield [2]: 0.60 | Volume FPLC [1]: 435 kDa | Cell NSB (percent of cells with fluorescence higher than unstained cell) [4]: 0.1%

NH2-Cys(IR-783)-OH
Quantum Yield [2, 7]: <0.10 | Molecular Volume [1]: <2 kDa

DOTA-Lys(PEG 40 kDa)-Cys(Fl)-NH2
Quantum Yield [2, 7]: 0.60 | Molecular Volume [1]: 690 kDa

(DOTA)Lys(PEG5K)-Cys(Cy3) [PN(545)4.3]
Quant. Yield [2]: 0.59 | diameter [1]: 4.3 nm | Volume FPLC [1]: 35 kDa | Cell NSB (percent of cells with fluorescence higher than unstained cell) [4]: 31%
